Assay [1] deals with growth hormone receptor b (ghrb) of Cynoglossus semilaevis, mScarlet-I fusion (pcDNA3.1-S-ghrb) (Cynoglossus semilaevis). Nature of the assay: FRET or BRET; acceptor bleaching FRET in HEK 293T cells co-transfected with the mNeonGreen-ligand and mScarlet-I-receptor plasmids at a 1:2 ratio, 48 h after transfection, Nikon A1R HD25 confocal microscope; FRETeff = (Dpost - Dpre)/Dpost. For orientation: Bioluminescence resonance energy transfer reports proximity on the nanometre scale.
Chain of growth hormone receptor b (ghrb) of Cynoglossus semilaevis, mScarlet-I fusion (pcDNA3.1-S-ghrb) (Cynoglossus semilaevis) (main, as listed by the source): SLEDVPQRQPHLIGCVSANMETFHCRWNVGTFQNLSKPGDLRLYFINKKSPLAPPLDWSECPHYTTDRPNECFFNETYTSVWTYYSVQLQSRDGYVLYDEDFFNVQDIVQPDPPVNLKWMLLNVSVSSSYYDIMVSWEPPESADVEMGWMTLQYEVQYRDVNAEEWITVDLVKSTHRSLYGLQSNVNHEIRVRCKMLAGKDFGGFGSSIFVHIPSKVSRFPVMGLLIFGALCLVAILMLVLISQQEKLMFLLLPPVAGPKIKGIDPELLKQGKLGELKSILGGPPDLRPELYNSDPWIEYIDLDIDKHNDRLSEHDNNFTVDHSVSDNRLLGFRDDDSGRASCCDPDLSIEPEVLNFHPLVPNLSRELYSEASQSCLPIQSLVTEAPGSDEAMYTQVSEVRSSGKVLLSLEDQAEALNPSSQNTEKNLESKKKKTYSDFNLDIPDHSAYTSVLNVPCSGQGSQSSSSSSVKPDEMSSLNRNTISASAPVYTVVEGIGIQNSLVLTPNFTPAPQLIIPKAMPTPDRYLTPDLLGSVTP

The target in assay [2] is growth hormone receptor a (ghra) of Cynoglossus semilaevis, mScarlet-I fusion (pcDNA3.1-S-ghra) (Cynoglossus semilaevis). The assay is described as above.
Chain of growth hormone receptor a (ghra) of Cynoglossus semilaevis, mScarlet-I fusion (pcDNA3.1-S-ghra) (Cynoglossus semilaevis) (main, as listed by the source): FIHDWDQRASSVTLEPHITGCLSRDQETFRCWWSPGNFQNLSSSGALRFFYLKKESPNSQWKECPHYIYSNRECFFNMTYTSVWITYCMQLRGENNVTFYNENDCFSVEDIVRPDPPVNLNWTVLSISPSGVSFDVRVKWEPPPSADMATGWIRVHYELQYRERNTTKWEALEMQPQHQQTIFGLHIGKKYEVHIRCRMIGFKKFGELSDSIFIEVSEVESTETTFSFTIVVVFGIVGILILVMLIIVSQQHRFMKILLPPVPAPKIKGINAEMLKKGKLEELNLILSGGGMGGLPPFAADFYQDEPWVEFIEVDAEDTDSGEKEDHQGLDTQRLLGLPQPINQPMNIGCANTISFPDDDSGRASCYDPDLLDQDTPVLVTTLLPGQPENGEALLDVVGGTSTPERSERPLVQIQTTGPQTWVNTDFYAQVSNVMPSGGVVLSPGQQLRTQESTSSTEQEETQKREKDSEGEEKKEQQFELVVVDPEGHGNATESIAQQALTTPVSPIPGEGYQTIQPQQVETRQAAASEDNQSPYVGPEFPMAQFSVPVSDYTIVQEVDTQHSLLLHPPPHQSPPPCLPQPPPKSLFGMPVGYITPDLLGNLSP

For “growth hormone (gh) of Cynoglossus semilaevis, mNeonGreen fusion (pcDNA3.1-N-gh) (ligand)”, the FRET efficiency in assay [1] was determined as 0.036; in assay [2], 0.0534.
In the case of “somatolactin (sl) of Cynoglossus semilaevis, mNeonGreen fusion (pcDNA3.1-N-sl) (ligand)”, the FRET efficiency in assay [2] was found to be 0.0509.

Values taken from article PMC11855606.
